Sequences and labels used below:
T1: CRP (UniProt P02741 19-224)
T1 sequence: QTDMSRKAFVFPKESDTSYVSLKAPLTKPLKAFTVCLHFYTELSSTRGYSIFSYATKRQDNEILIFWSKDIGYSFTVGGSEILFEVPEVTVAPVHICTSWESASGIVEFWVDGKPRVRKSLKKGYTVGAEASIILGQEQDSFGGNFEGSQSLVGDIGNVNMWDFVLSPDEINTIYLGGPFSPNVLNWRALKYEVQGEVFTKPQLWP

T2: PLGF (Homo sapiens, UniProt P49763 19-141+214-221, internal_change)
T2 sequence: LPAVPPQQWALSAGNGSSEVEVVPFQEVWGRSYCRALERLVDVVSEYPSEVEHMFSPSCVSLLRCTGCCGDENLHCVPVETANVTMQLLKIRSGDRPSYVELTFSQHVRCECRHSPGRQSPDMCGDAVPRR

B1: CRP-PQS1 (ssDNA)
DNA: GGGATCGTGGAGTTCTGGGTAGATGGGAAGCCCAGGG
B2: HBEGF-PQS3 (ssDNA)
DNA: GGCGGCCACTGGGCGCTGG
B3: HBEGF-PQS11 (ssDNA)
DNA: GGACGGGCGTCGGCATCGG
B4: HBEGF-PQS10 (ssDNA)
DNA: GGCACGGGCCACTTGGTGGGG
B5: HBEGF-PQS4 (ssDNA)
DNA: GGGCGGCGGAGCTCAGG
B6: HBEGF-PQS12 (structured_DNA)
DNA: GGTCAGGGGTCTGGGCGGG
B7: HBEGF-PQS7 (ssDNA)
DNA: GGCGGGCGGCAGACGGTGCCCGG
B8: HBEGF-PQS6 (ssDNA)
DNA: GGCGCGCGGGGTCGGGCGGCCGCGCGGG
B9: HBEGF-PQS14 (ssDNA)
DNA: GGAGGCGGCCGG
B10: HBEGF-PQS13 (ssDNA)
DNA: GGAGCGGCTTCGGAGAGG
B11: HBEGF-PQS5 (ssDNA)
DNA: GGCCGGGAATAAGGCTCCAGG
B12: PLGF-PQS4 (structured_DNA)
DNA: GGGCGGGTGTCCCGGGTGTCGGG
B13: PLGF-PQS2 (structured_DNA)
DNA: GGGAGGGAGGGAGGG
B14: PLGF-PQS1 (structured_DNA)
DNA: GGGCGCCGAGGGGCAGGCGGGTCCCGGGG
B15: PLGF-PQS3 (structured_DNA)
DNA: GGGCCTCGCGGGCCAGTCGGGCGTCGCGGG
B16: ApoE4-PQS8 (structured_DNA)
DNA: GGGCTGGGATGGGGCGGG
B17: ApoE4-PQS6 (structured_DNA)
DNA: GGACGAGGTGAAGGAGCAGG
B18: ApoE4-PQS3 (structured_DNA)
DNA: GGCCCCTGGTGGAACAGGG
B19: ApoE4-PQS5 (structured_DNA)
DNA: GGATGGAGGAGATGGGCAGCCGG
B20: ApoE4-PQS1 (structured_DNA)
DNA: GGTGGCGGAGG
B21: ApoE4-PQS2 (structured_DNA)
DNA: GGCCCGGCTGGGCGCGG
B22: ApoE4-PQS7 (structured_DNA)
DNA: GGCTGGTGGAGAAGGTGCAGG
B23: ApoE4-PQS4 (structured_DNA)
DNA: GGAGCGGGCCCAGGCCTGGG
B24: HGF-PQS4 (ssDNA)
DNA: GGGCTGGCAGGAGTTTGG
B25: HGF-PQS2 (ssDNA)
DNA: GGAATAGGGAAGGTTAGCAGG
B26: HGF-PQS5 (ssDNA)
DNA: GGACGGGCTGGCGG
B27: HGF-PQS6 (structured_DNA)
DNA: GGAAGGGAGGAGCAAGG
B28: HGF-PQS9 (structured_DNA)
DNA: GGAAAGGAGGGGGCTGG
B29: HGF-PQS3 (structured_DNA)
DNA: GGGGATGGCGATGGGGAGCAGG
B30: CRP-PQS2 (ssDNA)
DNA: GGGGACTGTTGTGGGGTGGGGGGAGGGGGG
B31: Annexin2-PQS6 (structured_DNA)
DNA: GGGGAGGCGGGGCGGGGCGGGG
B32: Annexin2-PQS7 (structured_DNA)
DNA: GGGCCGGGAGGGTGCAGGG
B33: Annexin2-PQS1 (structured_DNA)
DNA: GGACCTGCGGCTCCCTGGGCGG
B34: Annexin2-PQS5 (structured_DNA)
DNA: GGGCAGGGCCAGGGGCGCTGGG
B35: Annexin2-PQS2 (structured_DNA)
DNA: GGCGCCTGGCGCGTCTGGAATGCGG
B36: TNFa-PQS1 (structured_DNA)
DNA: GGGTTTGGGTTTGGGGGTAGGG
B37: TNFa-PQS2 (structured_DNA)
DNA: GGGCATGGGGACGGGGTTCAGCCTCCAGGG
B38: TNFa-PQS3 (structured_DNA)
DNA: GGGTCCGAACAGGGACGATGGGGGTGGG
B39: TNFa-PQS4 (structured_DNA)
DNA: GGGAGAGAGGGAGGGAGGTCGTTTGGG

As usually defined, the Kd is the equilibrium constant for the complex coming apart. Low values mean tighter binding, high ones weaker binding.

TNF-alpha, sequence (P01375 77-233): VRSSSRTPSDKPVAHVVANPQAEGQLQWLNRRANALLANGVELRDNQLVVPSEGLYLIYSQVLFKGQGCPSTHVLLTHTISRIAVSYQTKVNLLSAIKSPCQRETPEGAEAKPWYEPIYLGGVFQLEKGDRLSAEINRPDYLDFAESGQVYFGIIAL
Annexin 2, sequence (P07355 2-339): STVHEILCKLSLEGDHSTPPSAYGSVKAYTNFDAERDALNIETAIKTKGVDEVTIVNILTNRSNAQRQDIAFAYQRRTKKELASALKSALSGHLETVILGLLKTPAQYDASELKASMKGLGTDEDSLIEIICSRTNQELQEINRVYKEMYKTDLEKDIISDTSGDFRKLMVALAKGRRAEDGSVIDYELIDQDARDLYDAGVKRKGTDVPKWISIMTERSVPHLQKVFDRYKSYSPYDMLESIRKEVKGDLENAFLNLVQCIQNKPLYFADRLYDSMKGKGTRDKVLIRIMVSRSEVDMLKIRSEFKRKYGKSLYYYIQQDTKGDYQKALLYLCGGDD

The first data set has as its target T1, CRP. As to the kind of experiment: SPR. (In general: Surface plasmon resonance follows binding to a sensor surface in real time, without labels.)
As for B1, the binding result was “no binding”.

The target of another data set is HB-EGF (UniProt Q99075 63-148). As to the kind of experiment: SPR.
HB-EGF, sequence (Q99075 63-148): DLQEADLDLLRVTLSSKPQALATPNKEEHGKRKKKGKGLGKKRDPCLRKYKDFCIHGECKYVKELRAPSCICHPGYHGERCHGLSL
On to B2, for which the binding result is reported as “no binding”.

Regarding B3, the binding result is “no binding”. As to B4, the binding result is reported as “no binding”. For the molecule B5, the binding result is reported as “no binding”.

In the case of B6, the binding result is reported as “no binding”.

With B7, the binding result is “no binding”.

In the case of B8, the binding result is listed as “no binding”. Regarding B9, the binding result is on record as “no binding”.

Regarding B10, the binding result is on record as “no binding”. For B11, the binding result was “no binding”.

The next data set deals with T2, PLGF. As to the kind of experiment: SPR.
Take B12: the binding result was “no binding”. The same measure, in the same setting: next, B13: “no binding”; B14: “no binding”; B15: “no binding”.

In the next data set the target is ApoE4 (UniProt P02649 19-317, C130R). As to the kind of experiment: SPR.
ApoE4, sequence (P02649 19-317 C130R): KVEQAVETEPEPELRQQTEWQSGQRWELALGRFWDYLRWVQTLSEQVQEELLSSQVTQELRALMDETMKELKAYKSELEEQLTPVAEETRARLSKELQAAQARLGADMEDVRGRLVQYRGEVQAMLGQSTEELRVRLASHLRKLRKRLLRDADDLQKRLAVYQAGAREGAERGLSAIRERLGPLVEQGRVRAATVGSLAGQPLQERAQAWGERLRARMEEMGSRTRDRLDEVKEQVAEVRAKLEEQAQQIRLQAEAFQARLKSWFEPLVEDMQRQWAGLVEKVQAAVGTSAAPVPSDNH
Consider B16, for which the binding result is “no binding”. Still for that read-out and setting: next, B17: “no binding”.

In the case of B18, the binding result was “no binding”. On the same count and under the same terms, next, B19: “no binding”. The molecule B20 registered a dissociation constant Kd of 60 nM. For the molecule B21, the binding result was “no binding”. Turning to B22, the binding result was “no binding”. Consider B23, for which the binding result is reported as “no binding”.

The target in a further data set is HGF (UniProt P14210;P14210 32-494;495-728). As to the kind of experiment: SPR.
HGF, sequence (P14210 32-494, chain 1 of 2): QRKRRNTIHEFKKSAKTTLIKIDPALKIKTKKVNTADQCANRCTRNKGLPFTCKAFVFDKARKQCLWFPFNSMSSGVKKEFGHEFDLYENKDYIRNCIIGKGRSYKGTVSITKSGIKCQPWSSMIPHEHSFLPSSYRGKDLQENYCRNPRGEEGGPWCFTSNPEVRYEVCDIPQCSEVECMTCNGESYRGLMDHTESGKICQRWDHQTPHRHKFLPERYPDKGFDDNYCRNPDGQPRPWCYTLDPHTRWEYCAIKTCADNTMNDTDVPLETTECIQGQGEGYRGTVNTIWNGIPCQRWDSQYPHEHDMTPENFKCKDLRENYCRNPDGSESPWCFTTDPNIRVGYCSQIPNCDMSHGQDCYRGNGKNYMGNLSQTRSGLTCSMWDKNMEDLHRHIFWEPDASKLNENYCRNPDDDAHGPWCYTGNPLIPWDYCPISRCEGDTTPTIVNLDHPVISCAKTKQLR
HGF, sequence (P14210 495-728, chain 2 of 2): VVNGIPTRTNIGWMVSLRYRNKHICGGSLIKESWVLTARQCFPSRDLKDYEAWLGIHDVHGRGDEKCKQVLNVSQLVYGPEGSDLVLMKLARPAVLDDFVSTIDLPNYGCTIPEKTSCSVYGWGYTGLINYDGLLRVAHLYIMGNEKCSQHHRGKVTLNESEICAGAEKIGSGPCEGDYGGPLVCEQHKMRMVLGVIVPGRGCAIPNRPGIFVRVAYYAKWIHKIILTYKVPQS
Turning to B24, the binding result is recorded as “no binding”. As to B25, the binding result is on record as “no binding”. B26: the binding result is on record as “no binding”. As to B27, the binding result is reported as “no binding”.

For the molecule B28, the binding result is given as “no binding”.

As to B29, the binding result was “no binding”.

The target in the next data set is T1, CRP. As to the kind of experiment: EMSA. Background: A gel shift assay detects complexes by their altered migration in electrophoresis.
B30: the binding result was “binds”.

A further data set has as its target Annexin 2 (UniProt P07355 2-339). As to the kind of experiment: EMSA.
For B31, the binding result is recorded as “binds”. Turning to B32, the binding result is on record as “binds”.

Consider B33, for which the binding result is “binds”. For B34, the binding result is given as “binds”. Still for that read-out and setting: the entry for B35 is “binds”.

Another data set concerns the target TNF-alpha (UniProt P01375 77-233). As to the kind of experiment: EMSA.
Turning to B36, the binding result is “no binding”. Same read-out and setting: the entry for B37 is “no binding”; for B38 it is “no binding”; for B39 it is “no binding”.

The values above are taken from PMC8080463.
